The text below walks through data of patent US20110052585A1 (Sanofi, published 2011).

For this test, the target named is T1, rhIL-23 (human, UniProt Q9NPF7 20-189; P29460 23-328).
T1 construct: Recombinant human IL-23 coated on immunoassay plates; also called IL-23 ligand
T1 sequence (looked up) 1: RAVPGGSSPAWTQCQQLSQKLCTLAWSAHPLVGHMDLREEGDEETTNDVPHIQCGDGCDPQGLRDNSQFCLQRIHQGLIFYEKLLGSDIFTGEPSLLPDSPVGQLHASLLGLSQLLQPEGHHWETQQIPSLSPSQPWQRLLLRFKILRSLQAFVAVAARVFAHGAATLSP
T1 sequence (looked up) 2: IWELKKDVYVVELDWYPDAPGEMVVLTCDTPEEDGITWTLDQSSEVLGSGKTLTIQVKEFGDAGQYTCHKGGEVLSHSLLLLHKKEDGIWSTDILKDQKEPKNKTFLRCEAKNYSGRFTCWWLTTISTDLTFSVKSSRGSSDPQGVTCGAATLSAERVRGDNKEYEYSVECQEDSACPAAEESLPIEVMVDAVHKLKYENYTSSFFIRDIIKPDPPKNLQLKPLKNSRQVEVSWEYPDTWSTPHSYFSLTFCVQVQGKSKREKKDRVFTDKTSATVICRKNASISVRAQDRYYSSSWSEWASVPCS
The test can be described thus: ELISA, ligand coated on plate, conditioned medium with soluble receptor. The procedure: Ligand Binding Assays: Conditioned media containing […] were generated in transfected or virally-infected 293 cells. Receptor concentrations in collected media were determined by ELISA and Western blot. Ligand binding assays were performed on immunoassay plates coated with target ligand rhIL-17 or rhIL-23. Typically conditioned media containing serial dilutions of soluble receptor were incubated with immobilized ligand 1-2 hours at room temperature. Unbound ligand was washed away and bound protein was detected and quantified with receptor-specific detection antibodies, as is performed in an ELISA.
In order to test the ability of the soluble IL-17 and IL-23 receptor fusions to bind to their respective ligands, the following experiments were conducted. In one experiment, the ability of the soluble receptors to bind immobilized ligands was explored. Conditioned media for each receptor was generated from Ad-infected A459 cells and quantified by ELISA as described. Binding was measured on ELISA plates pre-coated with IL-23 or IL-17 ligand. Relative binding was compared to purchased receptor/Fc chimeras (R&D Systems, Minneapolis, Minn.). The control IL-17R/Fc from R&D contains human IL-17R(Met1-Trp320) fused to IEGRMD and human IgG1(Pro100-Lys330). […]

B1: sIL23R-9gly-CH3 (Fc fusion)
chain: GITNINCSGHIWVEPATIFKMGMNISIYCQAAIKNCQPRKLHFYKNGIKERFQITRINKTTARLWYKNFLEPHASMYCTAECPKHFQETLICGKDISSGYPPDIPDEVTCVIYEYSGNMTCTWNAGKLTYIDTKYVVHVKSLETEEEQQYLTSSYINISTDSLQGGKKYLVWVQAANALGMEESKQLQIHLDDIVIPSAAVISRAETINATVPKTIIYWDSQTTIEKVSCEMRYKATTNQTWNVKEFDTNFTYVQQSEFYLEPNIKYVFQVRCQETGKRYWQPWSSPFFHKTPETVPQVTSKAFQHDTWNSGLTVASISTGHLTGGGGGGGGGQPREPQVYTLPPSRDELTKNQVSLTCLVKGFYPSDIAVEWESNGQPENNYKTTPPVLDSDGSFFLYSKLTVDKSRWQQGNVFSCSVMHEALHNHYTQKSLSLSPGK
notes: Fusion to the CH3 domain of human IgG1 only, with no hinge or CH2; It was tested as conditioned medium from adenovirus-infected cells; also called hIL-23R-9gly-CH3 chimera; soluble IL-23r
Consider B1, for which the binding result is “binds”.
